Substrate: C[C@]12CC[C@@H]3c4ccc(O)cc4CC[C@H]3[C@@H]1CC[C@@H]2O
Assay: HPLC of estrone (E1) formation
Format: biochemical, Microbacterium resistens
Settings: NAD+ (500 μM in the general assay), pH 7, MSM, 30 °C in the general assay, E2 0.018–0.40 mM

B1: 17β-HSD-0095 (Microbacterium resistens) (protein)
chain: MPTDPALPDPEPTKGNTMNRYEGRRALVTGGGSGIGQATVLRMLAEGGRVVAADVSPAGLADTVEKAGNAAARLTTVEVNVADEASVKAAVATAVDALGGLDVLVNAAGILRSSHTAETTLEQFETILRVNLVGTFLMIRESIPALLDGQDAAVVNFSSTSAMFAHPYMAAYAASKGGVQSMTHALAAEYAKQGIRFTAVQPGSISSGMTDGSGRSGQSAGPGLPEDADMSLFLKLAPAIGQGFAGPEAVAGVVAMLASADGAFITGTEVRIDGGTHF
notes: about 35 kDa on SDS-PAGE
Km: 480 µM
